Assay results taken from patent US7304127.
Values joined by “and” are separate entries in the source; they are usually repeats but may differ in a detail not shown here. Equal entries are not always repeated.

Each binder was assayed against HIV-1LAI envelope gp120 labeled with radioactive iodine (HIV-1 LAI), P03377 (assay: 125I-gp120, peptide array).
With SEDNSKTFSASHNVEATS (modifications not checked) [STRL33 321-338] the counts minus background (counts per 20 min) was 524 and 434. With SKTFSASHNVEATSMFQL (modifications not checked) [STRL33 325-342] the counts minus background (counts per 20 min) was 1520 and 1240. For SFHYTIMVTEAIAYLRAC (modifications not checked) [STRL33 265-282], the counts minus background (counts per 20 min) was 762 and 1030. With AFVSLKFRKNFWKLVKDI (modifications not checked) [STRL33 289-306] the counts minus background (counts per 20 min) was 808 and 1040. Work on SQYQFWKNFQTLKIVILG (modifications not checked) [CCR5 185-202] yielded a counts minus background (counts per 20 min) of 1570. Work on VFASLPGIIFTRSQKEGL (modifications not checked) [CCR5 157-174] yielded a counts minus background (counts per 20 min) of 54. In the case of QKINVKQIAARLLPPLYS (modifications not checked) [CCR5 21-38], the counts minus background (counts per 20 min) is reported as 20. Work on AVRLIFTIMIVYFLFWAP (modifications not checked) [CCR5 233-250] yielded a counts minus background (counts per 20 min) of 62. For ILKTLLRCRNEKKRHRAV (modifications not checked) [CCR5 217-234], the counts minus background (counts per 20 min) was 19. With TIMVTEAIAYLRACLNPV (modifications not checked) [STRL33 269-286] the counts minus background (counts per 20 min) was 140 and 272. PVLYAFVSLKFRKNFWKL (modifications not checked) [STRL33 285-302] was tested, and the counts minus background (counts per 20 min) was 1860 and 2150. With HWEYYAMTSFHYTIMVTE (modifications not checked) [STRL33 257-274] the counts minus background (counts per 20 min) was 2040 and 3070. For FLFWAPYNIVLLLNTFQE (modifications not checked) [CCR5 245-262], the counts minus background (counts per 20 min) was 616. Binder VMVICYSGILKTLLRCRN (modifications not checked) [CCR5 209-226] has a counts minus background (counts per 20 min) of -8. In the case of AYLRACLNPVLYAFVSLK (modifications not checked) [STRL33 277-294], the counts minus background (counts per 20 min) is reported as 1800 and 1850. IRSTHWEYYAMTSFHYTI (modifications not checked) [STRL33 253-270] was tested, and the counts minus background (counts per 20 min) was 1570 and 1810. SEPCQKINVKQIAARLLP (modifications not checked) [CCR5 17-34] was tested, and the counts minus background (counts per 20 min) was -44. In the case of ACLNPVLYAFVSLKFRKN (modifications not checked) [STRL33 281-298], the counts minus background (counts per 20 min) is reported as 4170 and 4520. Binder KRHRAVRLIFTIMIVYFL (modifications not checked) [CCR5 229-246] has a counts minus background (counts per 20 min) of 36. In the case of AVFALKARTVTFGVVTSV (modifications not checked) [CCR5 133-150], the counts minus background (counts per 20 min) is reported as 63. Binder FQTLKIVILGLVLPLLVM (modifications not checked) [CCR5 193-210] has a counts minus background (counts per 20 min) of 45. For TVTFGVVTSVITWVVAVF (modifications not checked) [CCR5 141-158], the counts minus background (counts per 20 min) was -25. For GLHYTCSSHFPYSQYQFW (modifications not checked) [CCR5 173-190], the counts minus background (counts per 20 min) was 301. For TCSSHFPYSQYQFWKNFQ (modifications not checked) [CCR5 177-194], the counts minus background (counts per 20 min) was 367. Work on IYDINYYTSEPCQKINVK (modifications not checked) [CCR5 9-26] yielded a counts minus background (counts per 20 min) of 228. For TEAIAYLRACLNPVLYAF (modifications not checked) [STRL33 273-290], the counts minus background (counts per 20 min) was 604 and 480. YAMTSFHYTIMVTEAIAY (modifications not checked) [STRL33 261-278] was tested, and the counts minus background (counts per 20 min) was 2690 and 2360. With LKFRKNFWKLVKDIGCLP (modifications not checked) [STRL33 293-310] the counts minus background (counts per 20 min) was 920 and 958. For RNEKKRHRAVRLIFTIMI (modifications not checked) [CCR5 225-242], the counts minus background (counts per 20 min) was 23. With GVSHQWKSSEDNSKTFSA (modifications not checked) [STRL33 313-330] the counts minus background (counts per 20 min) was 208 and 306. With LLTIDRYLAVVHAVFALK (modifications not checked) [CCR5 121-138] the counts minus background (counts per 20 min) was 31. Work on GVVTSVITWVVAVFASLP (modifications not checked) [CCR5 145-162] yielded a counts minus background (counts per 20 min) of 69. In the case of FWKNFQTLKIVILGLVLP (modifications not checked) [CCR5 189-206], the counts minus background (counts per 20 min) is reported as 40. In the case of HFPYSQYQFWKNFQTLKI (modifications not checked) [CCR5 181-198], the counts minus background (counts per 20 min) is reported as 1010. NYYTSEPCQKINVKQIAA (modifications not checked) [CCR5 13-30] showed a counts minus background (counts per 20 min) of 6. APYNIVLLLNTFQEFFGL (modifications not checked) [CCR5 249-266] was tested, and the counts minus background (counts per 20 min) was 1960. In the case of SVITWVVAVFASLPGIIF (modifications not checked) [CCR5 149-166], the counts minus background (counts per 20 min) is reported as 46. KIVILGLVLPLLVMVICY (modifications not checked) [CCR5 197-214] was tested, and the counts minus background (counts per 20 min) was 65. Binder LPLLVMVICYSGILKTLL (modifications not checked) [CCR5 205-222] has a counts minus background (counts per 20 min) of 68. With FFIILLTIDRYLAVVHAV (modifications not checked) [CCR5 117-134] the counts minus background (counts per 20 min) was 77. Binder DRYLAVVHAVFALKARTV (modifications not checked) [CCR5 125-142] has a counts minus background (counts per 20 min) of 62. For CYSGILKTLLRCRNEKKR (modifications not checked) [CCR5 213-230], the counts minus background (counts per 20 min) was 70. Binder WVVAVFASLPGIIFTRSQ (modifications not checked) [CCR5 153-170] has a counts minus background (counts per 20 min) of 87. In the case of SQKEGLHYTCSSHFPYSQ (modifications not checked) [CCR5 169-186], the counts minus background (counts per 20 min) is reported as 304. Work on AVVHAVFALKARTVTFGV (modifications not checked) [CCR5 129-146] yielded a counts minus background (counts per 20 min) of 34. For QWKSSEDNSKTFSASHNV (modifications not checked) [STRL33 317-334], the counts minus background (counts per 20 min) was 464 and 534. LKARTVTFGVVTSVITWV (modifications not checked) [CCR5 137-154] gave a counts minus background (counts per 20 min) of 74.
